Patent CN111690063A (UNIV BEIJING, dated 2020)

Tests used:
粒细胞-巨噬细胞集落刺激因子 (human …) [1] = target: T1, 粒细胞-巨噬细胞集落刺激因子 (human granulocyte-macrophage colony-stimulating factor, GM-CSF) (human, UniProt P04141 18-144); assay: Not stated at this place (summary of advantages); conflicts with the value in Example 4
T1 construct: also called GM-CSF蛋白

粒细胞-巨噬细胞集落刺激因子 (human …) [2] = target: T1, 粒细胞-巨噬细胞集落刺激因子 (human …); assay: Biolayer interferometry type assay: GM-CSF loaded on SA sensor, nanobody at 1000, 500 and 250 nmol, 30℃

T1 sequence (P04141 18-144 limits assumed): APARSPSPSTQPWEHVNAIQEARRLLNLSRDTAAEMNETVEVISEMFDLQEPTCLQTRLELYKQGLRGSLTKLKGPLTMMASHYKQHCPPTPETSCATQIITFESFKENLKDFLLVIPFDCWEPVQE

B1: 抗GM-CSF纳米抗体G1 (VHH)
VHH: QLQLVESGGGLVQAGGSLRLSCAVSGRPSNVYDMGWFRRVPGKESRLMAYINWSRGSTYYADSVKGRFTISRDNTNNTVYLQMNSLKPEDTAVYYCAARAGPGTPAYNSWGQGTQVTVSS
notes: Alpaca VHH picked from an immune phage library
- Kd (粒细胞-巨噬细胞集落刺激因子 (human …) [1]): 29.5 nM
- Kd (粒细胞-巨噬细胞集落刺激因子 (human …) [2]): 93.7 nM
